Measurements reported in US20250171534A1 (D2M BIOTHERAPEUTICS, published 2025).
One block for each binder: values may come before it.

Experiments:
[1] = biological target: T1, LILRB1-ECD-HIS (SinoBiological Cat #: 16014-H02H) (human, UniProt Q8NHL6 24-461); test: BLI epitope binning (Gator), monomeric antigen
T1 construct: Bought protein; also called monomeric antigen LILRB1-ECD-HIS; not shown: His tag

[2] = biological target: T1, LILRB1-ECD-HIS (SinoBiological Cat #: …); test: BLI (Gator), RB1-ECD-his
[3] = biological target: T2, LILRB2-ECD-HIS (SinoBiological Cat #: 14132-H02H) (human, UniProt Q8N423 22-460); test: BLI (Gator), RB2-ECD-his
T2 construct: Bought protein; also called monomeric antigen LILRB2-ECD-HIS; not shown: His tag

[4] = biological target: T1, LILRB1-ECD-HIS (SinoBiological Cat #: …); test: SPR (Carterra), LILRB1-ECD-his
[5] = biological target: T2, LILRB2-ECD-HIS (SinoBiological Cat #: …); test: SPR (Carterra), LILRB2-ECD-his
[6] = biological target: T3, human LILRB1 expressed on cells (human, UniProt Q8NHL6 24-650); test: flow cytometry, CHO-LILRB1 cells
T3 construct: In 293T cells it was expressed from pCMV3-LILRB1-GFP; also called CHO-LILRB1; Jurkat-LILRB1

[7] = biological target: T3, human LILRB1 expressed on cells; test: flow cytometry, CHO-LILRB1 cells; remark: listed apart in the source
[8] = biological target: T4, human LILRB2 expressed on cells (human, UniProt Q8N423 22-597); test: flow cytometry, CHO-LILRB2 cells
T4 construct: In 293T cells it was expressed from pCMV3-LILRB2-GFP; also called CHO-LILRB2; Jurkat-LILRB2

[9] = biological target: T3, human LILRB1 expressed on cells; test: flow cytometry, Jurkat-LILRB1 cells
[10] = biological target: T4, human LILRB2 expressed on cells; test: flow cytometry, Jurkat-LILRB2 cells
[11] = biological target: T1, LILRB1-ECD-HIS (SinoBiological Cat #: …); test: SPR (Carterra LSA), antibody captured, antigen injected;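 further: kd obtained from kinetic analysis of antibody binding to the antigen, with association and dissociation phases fitted in the instrument software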
[12] = biological target: T2, LILRB2-ECD-HIS (SinoBiological Cat #: …); test: as above
[13] = biological target: T5, LILRA1 expressed on cells (human, UniProt O75019 17-489); test: flow cytometry on CHO-LILRA1 cells, non-linear fit of the curves of FIG. 26E
T5 construct: whole, on cells; GFP-tagged; also called human LILRA1; CHO-LILRA1

[14] = biological target: T3, human LILRB1 expressed on cells; test: flow cytometry on CHO-LILRB1 cells, non-linear fit of the curves of FIG. 26A
[15] = biological target: T4, human LILRB2 expressed on cells; test: flow cytometry on CHO-LILRB2 cells, non-linear fit of the curves of FIG. 26B
[16] = biological target: T3, human LILRB1 expressed on cells; test: flow cytometry, CHO-LILRB1 cells; blocked ligand: APC HLA-G trimer tetramer
[17] = biological target: T3, human LILRB1 expressed on cells; test: flow cytometry, Jurkat-LILRB1 cells; blocked ligand: APC HLA-G trimer tetramer
[18] = biological target: T4, human LILRB2 expressed on cells; test: flow cytometry, Jurkat-LILRB2 cells; blocked ligand: APC HLA-G monomer tetramer
[19] = biological target: T3, human LILRB1 expressed on cells; test: flow cytometry on CHO-LILRB1 cells (CHO-RB1), titrated antibody, labelled anti-human Fc, gMFI
[20] = biological target: T4, human LILRB2 expressed on cells; test: flow cytometry on CHO-LILRB2 cells (CHO-RB2), titrated antibody, labelled anti-human Fc, gMFI
[21] = biological target: T5, LILRA1 expressed on cells; test: flow cytometry on CHO-LILRA1 cells (CHO-RA1), titrated antibody, labelled anti-human Fc, gMFI
[22] = biological target: T6, LILRB3 expressed on cells (human, UniProt O75022 24-631); test: flow cytometry on 293T cells transiently expressing LILRB3, APC anti-human Fc; gMFI as fold to IgG staining
T6 construct: whole, on cells; Expressed with a GFP tag from the bought plasmid; also called human LILRB3; CHO-LILRB3

[23] = biological target: T7, LILRB4 expressed on 293T cells (UniProt Q8NHJ6 22-448, limits assumed); test: flow cytometry on 293T cells transiently expressing LILRB4, APC anti-human Fc; gMFI as fold to IgG staining
T7 construct: whole, on cells; GFP-tagged, transient

[24] = biological target: T8, LILRB5 expressed on 293T cells (UniProt O75023 24-590, limits assumed); test: flow cytometry on 293T cells transiently expressing LILRB5, APC anti-human Fc; gMFI as fold to IgG staining
T8 construct: whole, on cells; GFP-tagged, transient

[25] = biological target: T9, LILRA2 expressed on 293T cells (UniProt Q8N149 24-483, limits assumed); test: flow cytometry on 293T cells transiently expressing LILRA2, APC anti-human Fc; gMFI as fold to IgG staining
T9 construct: whole, on cells; GFP-tagged, transient

[26] = biological target: T10, LILRA3 expressed on 293T cells (UniProt Q8N6C8 24-439, limits assumed); test: flow cytometry on 293T cells transiently expressing LILRA3, APC anti-human Fc; gMFI as fold to IgG staining
T10 construct: whole, on cells; GFP-tagged, transient

[27] = biological target: T11, LILRA4 expressed on 293T cells (UniProt P59901 24-499, limits assumed); test: flow cytometry on 293T cells transiently expressing LILRA4, APC anti-human Fc; gMFI as fold to IgG staining
T11 construct: whole, on cells; GFP-tagged, transient

[28] = biological target: T12, LILRA6 expressed on cells (human, UniProt Q6PI73 24-481); test: flow cytometry on 293T cells transiently expressing LILRA6, APC anti-human Fc; gMFI as fold to IgG staining
T12 construct: whole, on cells; GFP-tagged; also called human LILRA6; CHO-LILRA6

[29] = biological target: T13, LILRA5 expressed on 293T cells (UniProt A6NI73 42-299, limits assumed); test: flow cytometry on 293T cells transiently expressing LILRA5, antibody 5 µg/mL, APC anti-human Fc; gMFI as fold to IgG staining
T13 construct: whole, on cells; GFP-tagged, transient

[30] = biological target: T14, cynomolgus monkey putative LILRB2 (antigen of the Gator measurement) (cynomolgus monkey); test: BLI (Gator), cyno RB2-his
T14 construct: also called cynomolgus monkey LILRB2

[31] = biological target: T3, human LILRB1 expressed on cells; test: flow cytometry, Jurkat-LILRB1 cells; remark: listed apart in the source
[32] = biological target: T4, human LILRB2 expressed on cells; test: flow cytometry, Jurkat-LILRB2 cells; remark: listed apart in the source
[33] = biological target: T3, human LILRB1 expressed on cells; test: flow cytometry, Jurkat-LILRB1 cells; blocked ligand: APC HLA-G trimer tetramer; remark: listed apart in the source
[34] = biological target: T2, LILRB2-ECD-HIS (SinoBiological Cat #: …); test: BLI epitope binning (Gator), monomeric antigen

T1 sequence (Q8NHL6 other isoform, or with tags, fused parts or gaps H02H H02H): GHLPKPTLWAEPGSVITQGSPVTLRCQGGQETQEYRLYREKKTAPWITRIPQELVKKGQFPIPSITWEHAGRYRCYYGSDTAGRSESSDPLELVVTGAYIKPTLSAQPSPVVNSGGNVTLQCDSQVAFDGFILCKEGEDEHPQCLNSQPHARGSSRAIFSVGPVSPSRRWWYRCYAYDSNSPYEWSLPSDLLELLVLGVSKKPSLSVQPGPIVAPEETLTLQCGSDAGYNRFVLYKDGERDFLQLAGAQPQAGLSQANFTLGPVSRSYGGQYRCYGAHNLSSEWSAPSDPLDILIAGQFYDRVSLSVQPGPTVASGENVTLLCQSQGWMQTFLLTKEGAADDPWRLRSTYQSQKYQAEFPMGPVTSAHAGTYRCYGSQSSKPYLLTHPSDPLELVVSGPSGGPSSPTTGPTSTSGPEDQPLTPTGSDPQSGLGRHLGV
T5 sequence (O75019 17-489): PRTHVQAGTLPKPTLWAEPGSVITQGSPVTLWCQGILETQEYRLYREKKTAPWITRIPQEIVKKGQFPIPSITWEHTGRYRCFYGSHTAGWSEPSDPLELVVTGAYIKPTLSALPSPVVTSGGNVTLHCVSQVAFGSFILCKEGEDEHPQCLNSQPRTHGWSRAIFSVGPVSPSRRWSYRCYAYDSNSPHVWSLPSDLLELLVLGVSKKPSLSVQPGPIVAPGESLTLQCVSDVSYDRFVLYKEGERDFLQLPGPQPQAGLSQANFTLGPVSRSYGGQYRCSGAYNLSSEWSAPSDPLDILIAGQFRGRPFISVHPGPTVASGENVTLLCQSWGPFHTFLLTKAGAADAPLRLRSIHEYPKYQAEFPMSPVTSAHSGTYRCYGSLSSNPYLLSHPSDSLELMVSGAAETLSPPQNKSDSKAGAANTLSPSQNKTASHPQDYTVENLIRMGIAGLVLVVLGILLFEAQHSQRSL
T3 sequence (Q8NHL6 other isoform, or with tags, fused parts or gaps limits assumed): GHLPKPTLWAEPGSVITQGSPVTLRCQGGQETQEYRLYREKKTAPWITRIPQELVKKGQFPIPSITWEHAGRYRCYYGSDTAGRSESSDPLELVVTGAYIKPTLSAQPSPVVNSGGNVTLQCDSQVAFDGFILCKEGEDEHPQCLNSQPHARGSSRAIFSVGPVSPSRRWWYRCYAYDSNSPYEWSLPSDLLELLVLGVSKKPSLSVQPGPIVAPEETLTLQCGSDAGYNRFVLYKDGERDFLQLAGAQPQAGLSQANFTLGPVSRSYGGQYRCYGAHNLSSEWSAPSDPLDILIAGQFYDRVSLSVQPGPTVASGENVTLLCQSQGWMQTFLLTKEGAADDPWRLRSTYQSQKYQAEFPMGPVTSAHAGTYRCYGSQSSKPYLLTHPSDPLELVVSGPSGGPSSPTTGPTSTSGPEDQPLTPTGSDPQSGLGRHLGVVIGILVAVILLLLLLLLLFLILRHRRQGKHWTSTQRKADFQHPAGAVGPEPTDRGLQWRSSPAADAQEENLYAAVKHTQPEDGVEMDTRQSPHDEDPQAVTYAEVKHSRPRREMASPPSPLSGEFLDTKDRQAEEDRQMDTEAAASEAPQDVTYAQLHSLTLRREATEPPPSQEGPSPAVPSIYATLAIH
T4 sequence (Q8N423 other isoform, or with tags, fused parts or gaps limits assumed): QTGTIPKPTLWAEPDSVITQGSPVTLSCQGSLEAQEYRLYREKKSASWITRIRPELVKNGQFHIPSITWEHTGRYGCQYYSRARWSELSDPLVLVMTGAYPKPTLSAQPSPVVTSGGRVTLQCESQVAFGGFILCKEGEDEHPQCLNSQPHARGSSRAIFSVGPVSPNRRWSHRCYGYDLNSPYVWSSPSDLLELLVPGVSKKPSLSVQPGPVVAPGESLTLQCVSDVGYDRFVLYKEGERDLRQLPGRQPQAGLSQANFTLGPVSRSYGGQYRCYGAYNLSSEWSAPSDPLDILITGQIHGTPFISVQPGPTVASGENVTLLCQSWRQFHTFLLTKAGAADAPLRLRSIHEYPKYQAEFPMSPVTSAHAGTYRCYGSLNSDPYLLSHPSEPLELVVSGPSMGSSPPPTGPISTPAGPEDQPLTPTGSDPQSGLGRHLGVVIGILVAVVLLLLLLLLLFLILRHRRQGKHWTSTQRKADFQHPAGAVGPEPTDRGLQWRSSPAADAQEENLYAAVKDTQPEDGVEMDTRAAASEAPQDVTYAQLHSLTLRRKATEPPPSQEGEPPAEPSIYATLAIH
T2 sequence (Q8N423 other isoform, or with tags, fused parts or gaps H02H H02H): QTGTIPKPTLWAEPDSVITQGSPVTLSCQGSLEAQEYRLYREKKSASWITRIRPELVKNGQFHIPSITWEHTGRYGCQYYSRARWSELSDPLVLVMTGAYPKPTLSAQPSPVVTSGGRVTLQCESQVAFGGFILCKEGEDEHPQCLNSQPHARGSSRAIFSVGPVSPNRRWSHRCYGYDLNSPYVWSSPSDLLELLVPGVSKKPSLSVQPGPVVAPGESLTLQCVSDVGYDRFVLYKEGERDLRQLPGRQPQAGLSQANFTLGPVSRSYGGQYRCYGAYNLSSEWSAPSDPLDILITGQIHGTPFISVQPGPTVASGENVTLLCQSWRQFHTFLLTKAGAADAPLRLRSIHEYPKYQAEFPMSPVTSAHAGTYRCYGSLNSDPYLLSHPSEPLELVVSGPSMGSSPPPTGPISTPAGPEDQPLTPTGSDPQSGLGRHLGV
T9 sequence (Q8N149 24-483 limits assumed): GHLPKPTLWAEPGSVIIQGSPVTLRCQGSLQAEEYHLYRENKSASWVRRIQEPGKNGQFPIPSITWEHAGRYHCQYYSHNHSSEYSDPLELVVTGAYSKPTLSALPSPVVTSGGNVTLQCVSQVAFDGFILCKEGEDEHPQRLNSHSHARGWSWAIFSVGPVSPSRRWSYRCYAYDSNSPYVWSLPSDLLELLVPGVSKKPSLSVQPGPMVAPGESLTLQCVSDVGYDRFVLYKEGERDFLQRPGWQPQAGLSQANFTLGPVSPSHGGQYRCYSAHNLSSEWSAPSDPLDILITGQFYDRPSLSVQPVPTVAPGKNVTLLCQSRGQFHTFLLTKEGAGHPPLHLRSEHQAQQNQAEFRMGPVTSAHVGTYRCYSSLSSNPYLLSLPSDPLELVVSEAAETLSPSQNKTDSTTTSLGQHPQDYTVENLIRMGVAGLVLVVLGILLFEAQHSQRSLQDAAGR
T13 sequence (A6NI73 42-299 limits assumed): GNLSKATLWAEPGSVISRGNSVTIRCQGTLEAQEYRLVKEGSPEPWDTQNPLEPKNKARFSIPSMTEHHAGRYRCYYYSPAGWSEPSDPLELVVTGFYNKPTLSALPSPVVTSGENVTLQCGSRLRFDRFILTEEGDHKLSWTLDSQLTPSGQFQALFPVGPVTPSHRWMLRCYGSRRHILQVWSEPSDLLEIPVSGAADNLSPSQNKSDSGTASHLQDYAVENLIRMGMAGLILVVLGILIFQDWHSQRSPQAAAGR
T12 sequence (Q6PI73 24-481): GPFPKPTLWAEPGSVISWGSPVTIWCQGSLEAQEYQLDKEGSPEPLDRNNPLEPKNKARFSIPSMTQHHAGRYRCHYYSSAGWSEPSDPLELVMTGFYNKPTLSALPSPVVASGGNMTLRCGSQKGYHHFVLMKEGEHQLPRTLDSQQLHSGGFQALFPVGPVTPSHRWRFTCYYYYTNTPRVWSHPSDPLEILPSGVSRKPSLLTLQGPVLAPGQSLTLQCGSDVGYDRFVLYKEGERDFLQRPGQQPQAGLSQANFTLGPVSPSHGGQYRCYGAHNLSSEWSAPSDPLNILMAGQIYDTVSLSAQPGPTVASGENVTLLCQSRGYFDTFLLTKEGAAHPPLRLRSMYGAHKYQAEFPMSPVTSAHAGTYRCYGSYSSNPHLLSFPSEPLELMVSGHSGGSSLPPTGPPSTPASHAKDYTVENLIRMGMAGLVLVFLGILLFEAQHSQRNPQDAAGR
T11 sequence (P59901 24-499 limits assumed): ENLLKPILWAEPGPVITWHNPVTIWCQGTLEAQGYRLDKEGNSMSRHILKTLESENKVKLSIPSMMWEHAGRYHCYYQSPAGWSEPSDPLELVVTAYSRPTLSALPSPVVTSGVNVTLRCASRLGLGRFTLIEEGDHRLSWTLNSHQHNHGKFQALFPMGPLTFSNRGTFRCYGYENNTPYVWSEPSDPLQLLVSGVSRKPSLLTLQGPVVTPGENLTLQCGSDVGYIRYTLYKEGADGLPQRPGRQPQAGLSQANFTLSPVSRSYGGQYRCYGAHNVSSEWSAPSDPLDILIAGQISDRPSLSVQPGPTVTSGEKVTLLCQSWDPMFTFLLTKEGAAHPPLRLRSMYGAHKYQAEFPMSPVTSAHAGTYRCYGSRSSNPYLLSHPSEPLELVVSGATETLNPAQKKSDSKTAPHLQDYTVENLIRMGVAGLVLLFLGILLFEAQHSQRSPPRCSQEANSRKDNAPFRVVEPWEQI

- binding result [1]: binds
B1: Anti-LILRB1 antibody 15G8 (antibody, human IgG4 S228P, kappa)
heavy: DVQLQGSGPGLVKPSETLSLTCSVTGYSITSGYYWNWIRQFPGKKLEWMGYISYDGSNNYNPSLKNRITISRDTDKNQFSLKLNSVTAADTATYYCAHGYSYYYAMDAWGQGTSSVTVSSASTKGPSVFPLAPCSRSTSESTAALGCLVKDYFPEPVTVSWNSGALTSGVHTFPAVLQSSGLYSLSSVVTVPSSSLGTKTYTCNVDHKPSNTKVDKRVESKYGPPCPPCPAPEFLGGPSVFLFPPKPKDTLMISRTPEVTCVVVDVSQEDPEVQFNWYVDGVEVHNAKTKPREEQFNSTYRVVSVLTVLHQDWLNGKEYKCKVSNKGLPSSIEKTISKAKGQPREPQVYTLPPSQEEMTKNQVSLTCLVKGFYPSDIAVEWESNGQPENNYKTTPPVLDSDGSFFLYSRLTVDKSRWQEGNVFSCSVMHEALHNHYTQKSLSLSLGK
light: DIQMTQSPSSLSASVGDRVTITCRTSQDISNYLNWYQQKPGKAVKLLISYTSRLHSGVPSRFSGSGSGTDYTLTISSLQPEDFATYYCQQGNTLPTFGQGTKLEIKRTVAAPSVFIFPPSDEQLKSGTASVVCLLNNFYPREAKVQWKVDNALQSGNSQESVTEQDSKDSTYSLSSTLTLSKADYEKHKVYACEVTHQGLSSPVTKSFNRGEC
notes: also called BND-22

- Kd [2]: 0.689 nM
- Kd [3]: 0.103 nM
- Kd [4]: 0.382 nM
- koff [4]: 2.79e-05 s⁻¹
- kon [4]: 73100 M⁻¹ s⁻¹
- Kd [5]: 0.0608 nM
- koff [5]: 4.53e-05 s⁻¹
- kon [5]: 745000 M⁻¹ s⁻¹
- EC50 [6]: 1.02 µg/mL
- EC50 [7]: 0.818 µg/mL
- gMFI (max) [7]: 43200
- EC50 [8]: 2.63 µg/mL
- gMFI (max) [8]: 35500
- EC50 [9]: 1.94 µg/mL
- EC50 [10]: 0.106 µg/mL
- Kd [11]: 0.737 nM
- Kd [12]: 0.0286 nM
- EC50 [13]: 0.0877 µg/mL
- MaxMFI [13]: 28100
- EC50 [14]: 0.4 µg/mL
- MaxMFI [14]: 113000
- EC50 [15]: 0.18 µg/mL
- MaxMFI [15]: 31800
- IC50 [16]: 0.197 µg/mL
- IC50 [17]: 0.34 µg/mL
- IC50 [18]: 0.023 µg/mL
- EC50 (read off the curve) [19]: ~0.4 µg/mL
- EC50 (read off the curve) [20]: ~0.2 µg/mL
- EC50 (read off the curve) [21]: ~0.09 µg/mL
- binding result [22]: no binding (tested: 5 µg/mL)
- binding result [23]: no binding (tested: 5 µg/mL)
- binding result [24]: no binding (tested: 5 µg/mL)
- binding result [25]: no binding (tested: 5 µg/mL)
- binding result [26]: no binding (tested: 5 µg/mL)
- binding result [27]: no binding (tested: 5 µg/mL)
- binding result [28]: no binding (tested: 5 µg/mL)
- binding result [29]: binds
B2: D2M002-026 (antibody, V domains shown)
VH: QVQLQQPGAELMKPGASVKISCKATGYTFSSYWIEWVKQRPGHGLEWIGEILPGDGSTNYNAKFKGQATFTADTSSNTAYMQFSSLTSEDSAVYYCARSGAGGYDSGAFAYWGQGTLVTVSS
VL: DIVLTQSPASLAVSLGQRATISCRASESVDTYGNSFMHWYQQKPGQPPKLLVYRTSNLESGIPARFSGSGSGTDFTLTINPVEADDVATYYCQQSNEDPWTFGGGTKLEIK
notes: Hit; also called clone #26

- Kd [2]: 1.1 nM
- Kd [3]: 0.136 nM
- Kd [30]: 1.03 nM
- Kd [4]: 4.9 nM
- koff [4]: 0.00101 s⁻¹
- kon [4]: 206000 M⁻¹ s⁻¹
- Kd [5]: 0.165 nM
- koff [5]: 0.000129 s⁻¹
- kon [5]: 781000 M⁻¹ s⁻¹
- EC50 (read off the curve) [31]: ~0.1 µg/mL
- EC50 (read off the curve) [32]: ~0.06 µg/mL
- EC50 [9]: 0.136 µg/mL
- EC50 [10]: 0.065 µg/mL
- IC50 (read off the curve) [33]: ~0.07 µg/mL
- IC50 [17]: 0.07 µg/mL
- IC50 [18]: 0.009 µg/mL
B3: D2M002-103 (antibody, V domains shown)
VH: QVQLVQSGAEVKKPGASVKVSCKASGYTFTRYVMHWVRQAPGQRLEWMGWINPNNEETKYSQKFKGRVTLTRDTSASTAYMELSSLRSEDTAVYYCARADLEILPYYDHARYAMDYWGQGTLVTVSS
VL: DIQMTQSPSSVSASVGDRVTITCRASENIYSHLAWYQQKPGKAPKLLVYNAKSLQSGVPSRFSGSGSGTDFTLTISSLQPEDFATYYCQHFWSTPPTFGGGTKVEIK
notes: also called P212_F01

- binding result [1]: binds
- binding result [34]: binds
B4: Anti-LILRB1/2 antibody Hz73D1.v1 (antibody, human IgG1, kappa, N297G, V domains shown)
VH: QVQLVQSGAEVKKPGASVKVSCKASGYTFTDYYINWVRQAPGQGLEWMGNVNPNDGGTTYNQKFKGRVTMTTDTSTSTAYMELRSLRSDDTAVYYCARREIYFYGTIYYYAMDYWGQGTLVTVSS
VL: DIQLTQSPSFLSASVGDRVTITCRASESVDYYGNSFMYWYQQKPGKAPKLLIYFASNLESGVPSRFSGSGSGTEFTLTISSLQPEDFATYYCQQNNEDPWTFGGGTKVEIKR
notes: also called NGM707
